The text below walks through data of patent US20230212587A1, “Mutant Hydroxyphenylpyruvate Dioxygenase Polypeptide, Encoding Gene Thereof and Use Therefor” (Beijing Dabeinong Biotechnology Co., Ltd., priority 2019, published 2023).

This experiment deals with Arabidopsis thaliana T1 plants. As to the kind of experiment: Topramezone tolerance of transgenic Arabidopsis thaliana T1 plants (pesticide damage grade by bleached leaf area, score, resistance evaluation). In kind it is in vivo. Conditions: HPPDs from different species, 7 DAT; for Classification and statistics of pesticide damage grade Grade 0 / Classification and statistics of pesticide damage grade Grade 1 / Classification and statistics of pesticide damage grade Grade 2 / Classification and statistics of pesticide damage grade Grade 3: number of plants (of 16) in this grade; for Scores: score for pesticide damage 0-100. In a few lines:
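Herbicide tolerance was judged per plant on a bleaching scale (grade 0 no bleaching to grade 3 fully bleached) 7 DAT. Topramezone doses were 0, 25, 50 and 100 g ai/ha on 18-day-old T1 and wild-type plants.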

B1: MsHPPD-02: native Medicago sativa HPPD, SEQ ID NO: 99 (protein, listed as Medicago sativa)
chain: MAIETETQTQTGFKLVGFKNFVRANPKSDRFKVKRFHHVEFWCTDATNTARRFSHGLGMPIVAKSDLSTGNQTHASYLLRSGDLNFLFSAAYSPSISLSSPSSTAAIPTFSASNCFSFSASHGLAVRAVAVEVEDAELAFTTSVNNGAIPSSPPVILENHVKLAEVRLYGDVVLRYVSYNDPNPNQNPNLLFLPGFERVSDESSNSSLDFGIRRLDHAVGNVPELSSAVKYVKDFTGFHEFAEFTAEDVGTSESGLNSVVLANNEETVLLPMNEPVYGTKRKSQIETYLEHNEGAGLQHLALKSEDIFRTLREMRKRSGVGGFEFMPSPPVTYYRNLKNRVGDVLSDEQIKECEELGILVDRDDQGTLLQIFTKPIGDRPTIFIEIIQRVGCMLKDEEGKEYQKGGCGGFGKGNFSELFKSIEEYEKTLETRRTA
modifications: MsHPPD Amino Acid Sequence
As for B1, for the setting “topramezone 25 g ai/ha (1x)”, the “Classification and statistics of pesticide damage grade Grade 0” value came to 0; the “Classification and statistics of pesticide damage grade Grade 1” value is on record as 0; the “Classification and statistics of pesticide damage grade Grade 2” value turned out to be 0; the “Classification and statistics of pesticide damage grade Grade 3” value was determined as 16. Besides, for the setting “topramezone 25 g ai/ha (1x)”, the Scores came out at 100 and the Resistance evaluation entry is given as “non-resistant (non-resistant plants (scores 68-100))”. In addition, under “topramezone 100 g ai/ha (4x)”, the “Classification and statistics of pesticide damage grade Grade 0” value stood at 0; the “Classification and statistics of pesticide damage grade Grade 1” value was 0; the “Classification and statistics of pesticide damage grade Grade 2” value was determined as 0; the “Classification and statistics of pesticide damage grade Grade 3” value stood at 16. Moreover, where the note is “topramezone 100 g ai/ha (4x)”, the Scores worked out at 100 and the Resistance evaluation entry is listed as “non-resistant (non-resistant plants (scores 68-100))”.

B2: MsHPPDm-F372A-02: Medicago sativa HPPD mutant F372A, SEQ ID NO: 102 (protein)
chain: MAIETETQTQTGFKLVGFKNFVRANPKSDRFKVKRFHHVEFWCTDATNTARRFSHGLGMPIVAKSDLSTGNQTHASYLLRSGDLNFLFSAAYSPSISLSSPSSTAAIPTFSASNCFSFSASHGLAVRAVAVEVEDAELAFTTSVNNGAIPSSPPVILENHVKLAEVRLYGDVVLRYVSYNDPNPNQNPNLLFLPGFERVSDESSNSSLDFGIRRLDHAVGNVPELSSAVKYVKDFTGFHEFAEFTAEDVGTSESGLNSVVLANNEETVLLPMNEPVYGTKRKSQIETYLEHNEGAGLQHLALKSEDIFRTLREMRKRSGVGGFEFMPSPPVTYYRNLKNRVGDVLSDEQIKECEELGILVDRDDQGTLLQIATKPIGDRPTIFIEIIQRVGCMLKDEEGKEYQKGGCGGFGKGNFSELFKSIEEYEKTLETRRTA
modifications: MsHPPDm-F372A Amino Acid Sequence
As for B2, for the setting “topramezone 25 g ai/ha (1x)”, the “Classification and statistics of pesticide damage grade Grade 0” value is reported as 5; the “Classification and statistics of pesticide damage grade Grade 1” value was found to be 7; the “Classification and statistics of pesticide damage grade Grade 2” value was found to be 4; the “Classification and statistics of pesticide damage grade Grade 3” value was 0. Moreover, where the note is “topramezone 25 g ai/ha (1x)”, the Scores was determined as 31 and the Resistance evaluation entry is “moderately resistant (moderately resistant plants (scores 16-33))”. In addition, for the setting “topramezone 100 g ai/ha (4x)”, the “Classification and statistics of pesticide damage grade Grade 0” value is 0; the “Classification and statistics of pesticide damage grade Grade 1” value was 4; the “Classification and statistics of pesticide damage grade Grade 2” value is recorded as 9; the “Classification and statistics of pesticide damage grade Grade 3” value was 3. In addition, under “topramezone 100 g ai/ha (4x)”, the Scores turned out to be 65 and the Resistance evaluation entry is on record as “poorly resistant (poorly resistant plants (scores 34-67))”.

B3: NtHPPD-02: native Nicotiana tabacum HPPD, SEQ ID NO: 111 (protein, listed as Nicotiana tabacum)
chain: MGKLETVTTTSAAAADDSSELTTNFKLVGFKNFIRTNPRSDFFSVKSFHHIEFWCGDATNTARRFSWSLGMPIAAKSDLSTGNSVHASYLLRPVSGSLQFLFTAPYSPSISTPSSAAIPSFSTSTHRSFTTTHGLGVRAVALEVENAYTAFSASVSRGAKPMFEPVTIDEQVAMAEVHLYGDVVLRFVSYLKDADNLVFLPGFEAMDETASYKELDYGIRRLDHAVGNVPELGPVVDYIKRFTGFHEFAEFTAEDVGTAESGLNSMVLANNDETVLLPLNEPVYGTKRKSQIQTYLEHNEGAGVQHLALVTEDIFKTLTEMRKRSGVGGFEFMPSPPPTYYKNLKNRAGDVLSDEQILACEELGILVDRDDQGTLLQIFTKPVGDRPTIFIEIIQRIGCMLKDGKGQVYQKGGCGGFGKGNFSELFRSIEEYEKTLEAKQANQVAAA
modifications: NtHPPD Amino Acid Sequence
In the case of B3, where the note is “topramezone 25 g ai/ha (1x)”, the “Classification and statistics of pesticide damage grade Grade 0” value is given as 0; the “Classification and statistics of pesticide damage grade Grade 1” value worked out at 0; the “Classification and statistics of pesticide damage grade Grade 2” value is 0; the “Classification and statistics of pesticide damage grade Grade 3” value worked out at 16. Where the note is “topramezone 25 g ai/ha (1x)”, the Scores is 100 and the Resistance evaluation entry was “non-resistant (non-resistant plants (scores 68-100))”. In addition, for the setting “topramezone 100 g ai/ha (4x)”, the “Classification and statistics of pesticide damage grade Grade 0” value was determined as 0; the “Classification and statistics of pesticide damage grade Grade 1” value is on record as 0; the “Classification and statistics of pesticide damage grade Grade 2” value was found to be 0; the “Classification and statistics of pesticide damage grade Grade 3” value amounted to 16. Under “topramezone 100 g ai/ha (4x)”, the Scores came to 100 and the Resistance evaluation result was “non-resistant (non-resistant plants (scores 68-100))”.

B4: BvHPPD-02: native Beta vulgaris HPPD, SEQ ID NO: 105 (protein, listed as Beta vulgaris)
chain: MGTLSPQPQTSPSQFKLVGYSNFIRVNPLSDLFPVKRFHHVEFWCGDATNVSRRFSWGLGMPIVAKSDLSTGNSVHASYLLRSGELHFLFTSPYSPSLSSPSSATIPTFSFSLFTSFLTSHGLAVRAVAVEVQDAEAAFHISVSNGASPVSPPIRLHDGVVLSEVHLYGDVVLRYVSTSSVVDGIFLPGFEEMLGESSFQELDFGLRRLDHAVGNVPELAPAIEYVKKFTGFHEFAEFTTEDVGTSESGLNSAVVANNDETVLFPMNEPVYGTKRKSQIQTYLEHNEGAGVQHLALMSEDIFWTLREMRKRSGLGGFEFMPSPPPTYYRNLRNRAADVLSEEQMKECEELGILVDKDDQGTLLQIFTKPIGDRPTMFIEIIQRIGCMMKDEEGKVYQKGGCGGFGKGNFSELFKSIEEYEKTLERKPIADTNAT
modifications: BvHPPD Amino Acid Sequence
Turning to B4, for the setting “topramezone 25 g ai/ha (1x)”, the “Classification and statistics of pesticide damage grade Grade 0” value is 0; the “Classification and statistics of pesticide damage grade Grade 1” value was 0; the “Classification and statistics of pesticide damage grade Grade 2” value was 0; the “Classification and statistics of pesticide damage grade Grade 3” value worked out at 16. Where the note is “topramezone 25 g ai/ha (1x)”, the Scores was determined as 100 and the Resistance evaluation entry is on record as “non-resistant (non-resistant plants (scores 68-100))”. Under “topramezone 100 g ai/ha (4x)”, the “Classification and statistics of pesticide damage grade Grade 0” value came to 0; the “Classification and statistics of pesticide damage grade Grade 1” value was 0; the “Classification and statistics of pesticide damage grade Grade 2” value is 0; the “Classification and statistics of pesticide damage grade Grade 3” value is recorded as 16. For the setting “topramezone 100 g ai/ha (4x)”, the Scores is recorded as 100 and the Resistance evaluation result is listed as “non-resistant (non-resistant plants (scores 68-100))”.

B5: BvHPPDm-F372A-02: Beta vulgaris HPPD mutant F372A, SEQ ID NO: 108 (protein)
chain: MGTLSPQPQTSPSQFKLVGYSNFIRVNPLSDLFPVKRFHHVEFWCGDATNVSRRFSWGLGMPIVAKSDLSTGNSVHASYLLRSGELHFLFTSPYSPSLSSPSSATIPTFSFSLFTSFLTSHGLAVRAVAVEVQDAEAAFHISVSNGASPVSPPIRLHDGVVLSEVHLYGDVVLRYVSTSSVVDGIFLPGFEEMLGESSFQELDFGLRRLDHAVGNVPELAPAIEYVKKFTGFHEFAEFTTEDVGTSESGLNSAVVANNDETVLFPMNEPVYGTKRKSQIQTYLEHNEGAGVQHLALMSEDIFWTLREMRKRSGLGGFEFMPSPPPTYYRNLRNRAADVLSEEQMKECEELGILVDKDDQGTLLQIATKPIGDRPTMFIEIIQRIGCMMKDEEGKVYQKGGCGGFGKGNFSELFKSIEEYEKTLERKPIADTNAT
modifications: BvHPPDm-F372A Amino Acid Sequence
In the case of B5, for the setting “topramezone 25 g ai/ha (1x)”, the “Classification and statistics of pesticide damage grade Grade 0” value is on record as 0; the “Classification and statistics of pesticide damage grade Grade 1” value is reported as 6; the “Classification and statistics of pesticide damage grade Grade 2” value is 10; the “Classification and statistics of pesticide damage grade Grade 3” value was determined as 0. Further, where the note is “topramezone 25 g ai/ha (1x)”, the Scores is recorded as 54 and the Resistance evaluation entry is given as “poorly resistant (poorly resistant plants (scores 34-67))”. Also, under “topramezone 100 g ai/ha (4x)”, the “Classification and statistics of pesticide damage grade Grade 0” value was found to be 0; the “Classification and statistics of pesticide damage grade Grade 1” value turned out to be 0; the “Classification and statistics of pesticide damage grade Grade 2” value was 4; the “Classification and statistics of pesticide damage grade Grade 3” value was 12. Moreover, for the setting “topramezone 100 g ai/ha (4x)”, the Scores was 92 and the Resistance evaluation result was “non-resistant (non-resistant plants (scores 68-100))”.
